Each block holds one molecule with its values, some of them ahead of it.
Tests used:
FXII-uPAR binding = FXII-uPAR binding (Homo sapiens, UniProt Q03405); experiment: Microscale thermophoresis of FXII-uPAR binding in absence or presence of FXII-derived inhibitory peptides; conditions: FIG. 2A
Protocol: FIGS. 2A-D show the characterization of FXII-derived inhibitory peptides. […] FXII_fl: recombinant full length FXII: Combo: combination of IPP-DLA-LHV peptides, 10 μM each. * p=0.004 FXII_fl vs. Combo, 2-way ANOVA.
The results provide insight on the structure of the non-catalytic region of FXII. These advances have also provided the structural details required to develop peptide antagonists. To this end, 3 peptides containing FXII amino acid residues implicated in uPAR binding were synthesized and termed “IPP” (corresponding to SEQ ID NO: 1), “DLA” (corresponding to SEQ ID NO: 2), and “LHV” (corresponding to SEQ ID NO: 3). The kinetics of peptide interference with FXII-uPAR binding was screened which yielded nanomolar affinity for each (FIG. 2A).

uPAR [1] = target: T1, uPAR (Homo sapiens, UniProt Q03405); experiment: Hydroxyl radical footprinting (HRF) with LC-MS: free FXII vs FXII in complex with uPAR; assay type: binding
Protocol: Briefly, free uPAR and human FXII protein samples were prepared with the final protein concentration of 2.5 μM and 3 μM, respectively (1:1.2 uPAR: FXII molar ratio). Free uPAR and FXII and FXII-uPAR complex were exposed to hydroxyl radicals for intervals of 0, 12, 20, and 40 milliseconds using the X-ray beam line. Next, the irradiated samples were reduced and alkylated with 10 mM and 25 mM of DTT and iodoacetamide, respectively. Subsequently, the samples were subjected to a trypsin and AspN digestion (1:10 enzyme to protein ratio) followed by liquid chromatography coupled with high-resolution mass spectrometry (LC-MS). The MS data were analyzed manually resulting in dose-response plots for each peptide. The HRF process introduces stable side chain oxidative modifications resulting in specific mass shifts, which were identified from the tandem mass spectrometry data. The selected ion chromatograms (SIC) were extracted and integrated for the un-oxidized and the oxidized forms of peptide ion (with particular m z). These peak area values were used to characterize reaction kinetics in the form of dose-response (DR) plots, which measure the loss of intact peptide as a function of the hydroxyl radical exposure. […] Differences in the rate of oxidation (called rate constant, RC) indicate the potential locations of the binding interface. MSI data for free and complex proteins were used to determine RC values for each peptide within the protein. Peptide location and the corresponding sequence are shown in columns 1 and 2, respectively. The third and fourth columns show the RC values for the free FXII protein and complex, respectively. The RC values were averaged from replicate experiments and the associated errors are shown next to each RC value.
Target sequence in this assay (Q03405 23-305 limits assumed): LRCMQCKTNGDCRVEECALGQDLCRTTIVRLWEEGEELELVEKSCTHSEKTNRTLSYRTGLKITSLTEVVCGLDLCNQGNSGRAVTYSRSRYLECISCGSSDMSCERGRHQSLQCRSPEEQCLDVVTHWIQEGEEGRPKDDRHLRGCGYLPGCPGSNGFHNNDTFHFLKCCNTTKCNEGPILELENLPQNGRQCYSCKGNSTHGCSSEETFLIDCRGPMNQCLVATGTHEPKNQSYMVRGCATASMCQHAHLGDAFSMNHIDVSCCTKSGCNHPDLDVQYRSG

uPAR [2] = target: T1, uPAR; experiment: Microscale thermophoresis of uPAR binding on site-directed FXII mutants (Ala substitutions); conditions: FIG. 1D
Excerpt: FIGS. 1A-D show the characterization of the FXII-uPAR binding interphase.
Each variant was characterized in several assays including microscale thermophoresis. […] These findings explain, at least in part, why the FXII-uPAR interaction is not a constitutive process in vivo.
Target sequence in this assay (Q03405 23-305): as the sequence (Q03405 23-305 limits assumed) above

[3] = target: T2, urokinase-type plasminogen activator receptor (uPAR; Plaur, Homo sapiens) (Homo sapiens, UniProt Q03405 23-305, limits assumed); experiment: peptide interference with FXII-uPAR binding, microscale thermophoresis
T2 construct: also called human uPAR; human soluble uPAR
T2 sequence (Q03405 23-305 limits assumed): as above

Chain of FXII-uPAR binding (Q03405 23-305 limits assumed): as above

affinity, peptide interference with FXII-uPAR binding (FXII-uPAR binding): nanomolar
Molecule: DLAQCQTPTQAAPPTPVSPR [listing 1 of 2 here]

Modification rate, KFXII, S^−1 FXII free (uPAR [1]; site P285, FXII position 272-291): 1.3 ± 0.061 S^−1
Modification rate, KCOM, S^−1 FXII complex (uPAR [1]; site P285, FXII position 272-291, complex with human uPAR): 0.87 ± 0.030 S^−1
Modification rate, KFXII, S^−1 FXII free (uPAR [1]; site P287, FXII position 272-291): 0.23 ± 0.021 S^−1
Modification rate, KCOM, S^−1 FXII complex (uPAR [1]; site P287, FXII position 272-291, complex with human uPAR): 0.11 ± 0.009 S^−1
Modification rate, KFXII, S^−1 FXII free (uPAR [1]; site Q281, FXII position 272-291): 0.97 ± 0.047 S^−1
Modification rate, KCOM, S^−1 FXII complex (uPAR [1]; site Q281, FXII position 272-291, complex with human uPAR): 0.53 ± 0.019 S^−1
Modification rate, KFXII, S^−1 FXII free (uPAR [1]; site V288, FXII position 272-291): 0.71 ± 0.04 S^−1
Modification rate, KCOM, S^−1 FXII complex (uPAR [1]; site V288, FXII position 272-291, complex with human uPAR): 0.46 ± 0.019 S^−1
Molecule: DLAQCQTPTQAAPPTPVSPR [listing 2 of 2 here]

affinity, peptide interference with FXII-uPAR binding (FXII-uPAR binding): nanomolar
Molecule: IPPWEAPK [listing 1 of 2 here]

Modification rate, KFXII, S^−1 FXII free (uPAR [1]; site W4, FXII position 1-8): 3.08 ± 0.25 S^−1
Modification rate, KCOM, S^−1 FXII complex (uPAR [1]; site W4, FXII position 1-8, complex with human uPAR): 3.08 ± 0.13 S^−1
Molecule: IPPWEAPK [listing 2 of 2 here]

affinity, peptide interference with FXII-uPAR binding (FXII-uPAR binding): nanomolar
Molecule: LHVPLMPAQPAPPK [listing 1 of 2 here]

Modification rate, KFXII, S^−1 FXII free (uPAR [1]; site H293, FXII position 292-305): 2.55 ± 0.30 S^−1
Modification rate, KCOM, S^−1 FXII complex (uPAR [1]; site H293, FXII position 292-305, complex with human uPAR): 1.82 ± 0.15 S^−1
Modification rate, KFXII, S^−1 FXII free (uPAR [1]; site K305, FXII position 292-305): 1.06 ± 0.063 S^−1
Modification rate, KCOM, S^−1 FXII complex (uPAR [1]; site K305, FXII position 292-305, complex with human uPAR): 0.58 ± 0.042 S^−1
Modification rate, KFXII, S^−1 FXII free (uPAR [1]; site L296, FXII position 292-305): 0.62 ± 0.054 S^−1
Modification rate, KCOM, S^−1 FXII complex (uPAR [1]; site L296, FXII position 292-305, complex with human uPAR): 0.29 ± 0.057 S^−1
Modification rate, KFXII, S^−1 FXII free (uPAR [1]; site V294, FXII position 292-305): 0.85 ± 0.093 S^−1
Modification rate, KCOM, S^−1 FXII complex (uPAR [1]; site V294, FXII position 292-305, complex with human uPAR): 0.79 ± 0.078 S^−1
Molecule: LHVPLMPAQPAPPK [listing 2 of 2 here]

FXII-uPAR binding of FXII variant (uPAR [2]): significantly reduced
B1: W4A variant: zymogen FXII with single Ala substitution of W residue at position 4 (protein)
chain: IPPAEAPKEHKYKAEEHTVVLTVTGEPCHFPFQYHRQLYHKCTHKGRPGPQPWCATTPNFDQDQRWGYCLEPKKVKDHCSKHSPCQKGGTCVNMPSGPHCLCPQHLTGNHCQKEKCFEPQLLRFFHKNEIWYRTEQAAVARCQCKGPDAHCQRLASQACRTNPCLHGGRCLEVEGHRLCHCPVGYTGAFCDVDTKASCYDGRGLSYRGLARTTLSGAPCQPWASEATYRNVTAEQARNWGLGGHAFCRNPDNDIRPWCFVLNRDRLSWEYCDLAQCQTPTQAAPPTPVSPRLHVPLMPAQPAPPKPQPTTRTPPQSQTPGALPAKREQPPSLTRNGPLSCGQRLRKSLSSMTRVVGGLVALRGAHPYIAALYWGHSFCAGSLIAPCWVLTAAHCLQDRPAPEDLTVVLGQERRNHSCEPCQTLAVRSYRLHEAFSPVSYQHDLALLRLQEDADGSCALLSPYVQPVCLPSGAARPSETTLCQVAGWGHQFEGAEEYASFLQEAQVPFLSLERCSAPDVHGSSILPGMLCAGFLEGGTDACQGDSGGPLVCEDQAAERRLTLQGIISWGSGCGDRNKPGVYTDVAYYLAWIREHTVS

binding result [3]: binds
Molecule: IPPWEAPK (Synthesized FXII-derived peptide) [IPP peptide (IPPWEAPK)]

binding result [3]: binds
Molecule: DLAQCQTPTQAAPPTPVSPR (Synthesized FXII-derived peptide) [DLA peptide (DLAQCQTPTQAAPPTPVSPR)]

binding result [3]: binds
Molecule: LHVPLMPAQPAPPK (Synthesized FXII-derived peptide) [LHV peptide (LHVPLMPAQPAPPK)]

Reference: US20250197838A1, “UROKINASE-TYPE PLASMINOGEN ACTIVATOR RECEPTOR BINDING PEPTIDES AND METHODS OF USE” (The United States Government as represented by the …, priority 2022, published 2025)
